This is an account of results in patent US20130149236A1 (MacroGenics, published 2013).

The target in one assay is T1, soluble B7H3-4Ig (human, UniProt Q5ZPR3 29-466).
T1 construct: Soluble or immobilized 4Ig form; also called 4Ig-B7-H3
T1 sequence: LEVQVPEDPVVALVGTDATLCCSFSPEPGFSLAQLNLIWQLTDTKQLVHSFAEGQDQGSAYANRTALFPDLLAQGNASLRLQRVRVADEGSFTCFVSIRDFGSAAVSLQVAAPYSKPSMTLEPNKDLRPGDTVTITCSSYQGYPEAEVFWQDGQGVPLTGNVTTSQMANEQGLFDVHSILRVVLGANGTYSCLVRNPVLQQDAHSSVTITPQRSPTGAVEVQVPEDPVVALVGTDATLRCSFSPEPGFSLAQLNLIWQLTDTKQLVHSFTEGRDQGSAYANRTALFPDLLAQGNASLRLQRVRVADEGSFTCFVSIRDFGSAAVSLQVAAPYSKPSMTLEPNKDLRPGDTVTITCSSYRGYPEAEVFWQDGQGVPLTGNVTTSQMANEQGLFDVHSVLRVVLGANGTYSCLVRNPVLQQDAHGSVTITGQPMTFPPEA
The assay can be described thus: Specificity.

In the next assay the target is T2, soluble B7H3-2Ig (human, UniProt Q5ZPR3 29-466).
T2 construct: Soluble or immobilized 2Ig form; also called 2Ig-B7-H3; B7-H3 (2Ig form)
T2 sequence: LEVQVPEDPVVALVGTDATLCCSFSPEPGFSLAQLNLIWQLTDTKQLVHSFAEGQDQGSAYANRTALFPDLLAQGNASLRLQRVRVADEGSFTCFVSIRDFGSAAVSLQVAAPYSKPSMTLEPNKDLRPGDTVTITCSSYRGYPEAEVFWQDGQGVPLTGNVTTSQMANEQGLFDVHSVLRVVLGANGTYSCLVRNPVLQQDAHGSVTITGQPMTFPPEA
The assay can be described thus: Specificity.

B1: PRCA157 (antibody, IgG1, V domains shown)
VH: EVQQVESGGDLVKPGGSLKLSCAASGFTFSSYGMSWVRQTPDKRLEWVATINSGGSNTYYPDSLKGRFTISRDNAKNTLYLQMRSLKSEDTAMYYCARHDGGAMDYWGQGTSVTVSS
VL: DIQMTQSPASLSVSVGETVTITCRASESIYSYLAWYQQKQGKSPQLLVYNTKTLPEGVPSRFSGSGSGTQFSLKINSLQPEDFGRYYCQHHYGTPPWTFGGGTNLEIK
notes: murine mAb, IgG1/k
Take B1: the binding result with soluble B7H3-4Ig and with soluble B7H3-2Ig was “binds” throughout.

B2: BRCA84D (antibody, IgG1, V domains shown)
VH: DVQLVESGGGLVQPGGSRKLSCAASGFTFSSFGMHWVRQAPEKGLEWVAYISSDSSAIYYADTVKGRFTISRDNPKNTLFLQMTSLRSEDTAMYYCGRGRENIYYGSRLDYWGQGTTLTVSS
VL: DIAMTQSQKFMSTSVGDRVSVTCKASQNVDTNVAWYQQKPGQSPKALIYSASYRYSGVPDRFTGSGSGTDFTLTINNVQSEDLAEYFCQQYNNYPFTFGSGTKLEIK
notes: murine mAb, IgG1/k; fluorescein-labeled in the FACS MFI columns
For B2, the binding result in the assay with soluble B7H3-4Ig and with soluble B7H3-2Ig was “binds” each time.
